Experimental findings from publication PMC9482650, “Quantitative fragmentomics allow affinity mapping of interactomes” (Nature Communications, 2022) are described below.

Sequences and labels used below:
B1: GAS2L2, Q8NHY3 (peptide)
chain: PLPPEEESWV
B2: DUSP5, Q16690 (peptide)
chain: RSPVATATSC

GRIP2_7, Q9C0E4, sequence (Q9C0E4 934-1023): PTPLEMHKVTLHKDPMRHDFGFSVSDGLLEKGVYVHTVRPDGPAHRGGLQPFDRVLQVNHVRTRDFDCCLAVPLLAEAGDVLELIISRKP
TJP1_2, Q07157, sequence (Q07157 181-274): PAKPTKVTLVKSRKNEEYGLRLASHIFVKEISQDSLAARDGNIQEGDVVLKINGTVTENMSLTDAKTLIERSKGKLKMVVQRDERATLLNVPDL
SCRIB_3, Q14160, sequence (Q14160 999-1103): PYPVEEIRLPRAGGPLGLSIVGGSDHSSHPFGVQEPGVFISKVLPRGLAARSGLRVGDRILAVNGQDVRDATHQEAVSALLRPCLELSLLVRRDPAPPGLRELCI

One assay has as its target SCRIB_3, Q14160. The experiment in a line: holdup assay. More on the design: key: below the threshold = too weak to quantify, mostly under pKd 3.1 to 4. The note with it: plain residues with an end cap or a label only (N-terminal biotin on a linker: ado-ado).
What is called pKd is the negative decadic logarithm of the Kd, by convention in mol/L. For the molecule B1, the pKd is 4.99.
The same measure, in the same setting: the same measure for B2: 3.56.

The target of the next assay is T1, APBA2_2, Q99767.
T1 sequence (Q99767 654-744, limits assumed, looked up): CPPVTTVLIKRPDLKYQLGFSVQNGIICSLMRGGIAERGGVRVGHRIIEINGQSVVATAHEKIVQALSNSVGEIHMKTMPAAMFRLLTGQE
The experiment in a line: holdup assay. The arrangement: key: below the threshold = too weak to quantify, mostly under pKd 3.1 to 4. As to conditions: plain residues with an end cap or a label only (N-terminal biotin on a linker: ado-ado).
Consider B1, for which the pKd entry is on record as “below the threshold”.
For the molecule B2, the pKd entry is listed as “below the threshold”.

Another assay concerns the target T2, ARHGAP21, Q5T5U3.
T2 sequence (Q5T5U3 45-169, limits assumed, looked up): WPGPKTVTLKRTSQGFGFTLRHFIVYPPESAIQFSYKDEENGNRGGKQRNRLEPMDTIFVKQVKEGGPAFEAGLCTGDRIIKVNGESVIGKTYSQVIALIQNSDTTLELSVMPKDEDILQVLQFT
Nature of the assay: holdup assay. The arrangement: key: below the threshold = too weak to quantify, mostly under pKd 3.1 to 4. The note with it: plain residues with an end cap or a label only (N-terminal biotin on a linker: ado-ado).
For B1, the pKd came to 4.15.
Turning to B2, the negative logarithm of the Kd (pKd) result is listed as “below the threshold”.

The target in the next assay is PARD3_3, Q8TEW0. Nature of the assay: holdup assay. More on the design: key: below the threshold = too weak to quantify, mostly under pKd 3.1 to 4. The note with it: plain residues with an end cap or a label only (N-terminal biotin on a linker: ado-ado).
PARD3_3, Q8TEW0, sequence (Q8TEW0 582-685): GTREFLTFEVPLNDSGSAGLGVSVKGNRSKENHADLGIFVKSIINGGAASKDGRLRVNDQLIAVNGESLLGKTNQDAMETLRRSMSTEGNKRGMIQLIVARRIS
On to B1, for which the pKd is 4.75.
Regarding B2, the pKd entry is listed as “below the threshold”.

The target in the next assay is TJP2_1, Q9UDY2. Nature of the assay: holdup assay. The arrangement: key: below the threshold = too weak to quantify, mostly under pKd 3.1 to 4. As to conditions: plain residues with an end cap or a label only (N-terminal biotin on a linker: ado-ado).
TJP2_1, Q9UDY2, sequence (Q9UDY2 24-128): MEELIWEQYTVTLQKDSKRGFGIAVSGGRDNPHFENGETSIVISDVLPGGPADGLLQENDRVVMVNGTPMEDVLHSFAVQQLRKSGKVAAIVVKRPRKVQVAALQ
For the molecule B1, the negative logarithm of the Kd (pKd) was 4.4.
For B2, the pKd entry is on record as “below the threshold”.

A further assay deals with T3, SNTA1, Q13424.
T3 sequence (Q13424 82-180, limits assumed, looked up): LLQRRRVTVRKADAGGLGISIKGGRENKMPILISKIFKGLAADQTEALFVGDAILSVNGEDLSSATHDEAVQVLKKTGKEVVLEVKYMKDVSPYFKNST
Nature of the assay: holdup assay. The arrangement: key: below the threshold = too weak to quantify, mostly under pKd 3.1 to 4. As to conditions: plain residues with an end cap or a label only (N-terminal biotin on a linker: ado-ado).
The molecule B1 yielded a pKd of 4.6.
With B2, the pKd result is given as “below the threshold”.

The target in a further assay is T4, HTRA3, P83110.
T4 sequence (P83110 354-453, limits assumed, looked up): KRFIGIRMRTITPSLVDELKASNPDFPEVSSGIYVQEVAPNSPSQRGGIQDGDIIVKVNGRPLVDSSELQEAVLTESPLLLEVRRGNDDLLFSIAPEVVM
The experiment in a line: holdup assay. The note with it: plain residues with an end cap or a label only (N-terminal biotin on a linker: ado-ado). More on the design: key: below the threshold = too weak to quantify, mostly under pKd 3.1 to 4.
B1 yielded a pKd of 5.59.
As for B2, the pKd was 3.89.

Another assay has as its target T5, CARD11, Q9BXL7.
T5 sequence (Q9BXL7 662-765, limits assumed, looked up): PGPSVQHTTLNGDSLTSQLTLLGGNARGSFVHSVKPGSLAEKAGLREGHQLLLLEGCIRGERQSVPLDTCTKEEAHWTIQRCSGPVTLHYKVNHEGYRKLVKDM
Nature of the assay: holdup assay. More on the design: key: below the threshold = too weak to quantify, mostly under pKd 3.1 to 4. The note with it: plain residues with an end cap or a label only (N-terminal biotin on a linker: ado-ado).
Regarding B1, the pKd entry was “below the threshold”.
For the molecule B2, the pKd entry is recorded as “below the threshold”.

Another assay addresses TJP1_2, Q07157. Nature of the assay: holdup assay. More on the design: key: below the threshold = too weak to quantify, mostly under pKd 3.1 to 4. The note with it: plain residues with an end cap or a label only (N-terminal biotin on a linker: ado-ado).
Regarding B1, the pKd entry is recorded as “below the threshold”.
For B2, the negative-log Kd (pKd) result was “below the threshold”.

The target of a further assay is T6, PARD3B_1, Q8TEW8.
T6 sequence (Q8TEW8 196-299, limits assumed, looked up): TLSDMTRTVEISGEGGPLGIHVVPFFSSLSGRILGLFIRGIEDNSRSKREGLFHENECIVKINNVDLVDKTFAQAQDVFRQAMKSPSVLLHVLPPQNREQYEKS
Nature of the assay: holdup assay. As to conditions: plain residues with an end cap or a label only (N-terminal biotin on a linker: ado-ado). The arrangement: key: below the threshold = too weak to quantify, mostly under pKd 3.1 to 4.
In the case of B1, the pKd came to 3.95.
As to B2, the pKd result was “below the threshold”.

In another assay the target is T7, PDZD7_3, Q9H5P4.
T7 sequence (Q9H5P4 857-944, limits assumed, looked up): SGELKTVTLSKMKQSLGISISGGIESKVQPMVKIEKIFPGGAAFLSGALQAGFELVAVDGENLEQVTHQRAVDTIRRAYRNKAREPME
Nature of the assay: holdup assay. More on the design: key: below the threshold = too weak to quantify, mostly under pKd 3.1 to 4. The note with it: plain residues with an end cap or a label only (N-terminal biotin on a linker: ado-ado).
The molecule B1 gave a pKd of 4.32.
B2 yielded a pKd of 3.72.

In a further assay the target is GORASP1, Q9BQQ3. The experiment in a line: holdup assay. The arrangement: key: below the threshold = too weak to quantify, mostly under pKd 3.1 to 4. The note with it: plain residues with an end cap or a label only (N-terminal biotin on a linker: ado-ado).
GORASP1, Q9BQQ3, sequence (Q9BQQ3 1-208): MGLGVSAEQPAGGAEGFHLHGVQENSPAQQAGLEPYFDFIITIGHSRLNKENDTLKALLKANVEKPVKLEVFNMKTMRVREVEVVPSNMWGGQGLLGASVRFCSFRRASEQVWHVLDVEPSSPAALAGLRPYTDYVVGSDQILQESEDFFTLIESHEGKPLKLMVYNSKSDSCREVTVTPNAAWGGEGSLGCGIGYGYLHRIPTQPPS
For B1, the pKd turned out to be 4.22.
For B2, the pKd result was “below the threshold”.

The target of a further assay is T8, FRMPD1, Q5SYB0.
T8 sequence (Q5SYB0 52-145, limits assumed, looked up): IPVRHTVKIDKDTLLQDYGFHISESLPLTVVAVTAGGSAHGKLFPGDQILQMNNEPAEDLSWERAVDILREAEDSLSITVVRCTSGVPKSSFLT
The experiment in a line: holdup assay. More on the design: key: below the threshold = too weak to quantify, mostly under pKd 3.1 to 4. The note with it: plain residues with an end cap or a label only (N-terminal biotin on a linker: ado-ado).
As to B1, the pKd entry was “below the threshold”.
Turning to B2, the pKd result is given as “below the threshold”.

In the next assay the target is LIMK2, P53671. Nature of the assay: holdup assay. The arrangement: key: below the threshold = too weak to quantify, mostly under pKd 3.1 to 4. The note with it: plain residues with an end cap or a label only (N-terminal biotin on a linker: ado-ado).
LIMK2, P53671, sequence (P53671 143-248): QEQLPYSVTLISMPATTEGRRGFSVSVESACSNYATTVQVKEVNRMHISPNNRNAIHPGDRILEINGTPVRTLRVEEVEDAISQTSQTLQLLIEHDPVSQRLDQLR
For the molecule B1, the pKd result is “below the threshold”.
Turning to B2, the pKd entry was “below the threshold”.

The target of a further assay is T9, DFNB31_1, Q9P202.
T9 sequence (Q9P202 135-233, limits assumed, looked up): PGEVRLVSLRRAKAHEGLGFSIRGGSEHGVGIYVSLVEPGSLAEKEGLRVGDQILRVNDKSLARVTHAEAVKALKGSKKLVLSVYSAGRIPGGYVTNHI
The experiment in a line: holdup assay. The note with it: plain residues with an end cap or a label only (N-terminal biotin on a linker: ado-ado). The arrangement: key: below the threshold = too weak to quantify, mostly under pKd 3.1 to 4.
Turning to B1, the pKd is 4.46.
Take B2: the pKd entry is listed as “below the threshold”.

In another assay the target is SCRIB_1, Q14160. The experiment in a line: holdup assay. The arrangement: key: below the threshold = too weak to quantify, mostly under pKd 3.1 to 4. As to conditions: plain residues with an end cap or a label only (N-terminal biotin on a linker: ado-ado).
SCRIB_1, Q14160, sequence (Q14160 718-814): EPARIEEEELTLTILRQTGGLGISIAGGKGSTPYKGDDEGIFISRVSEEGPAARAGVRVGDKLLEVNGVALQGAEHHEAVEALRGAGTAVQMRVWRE
B1 returned a pKd of 4.21.
For B2, the negative logarithm of the Kd (pKd) entry was “below the threshold”.

A further assay has as its target GRIP2_7, Q9C0E4. The experiment in a line: holdup assay. The arrangement: key: below the threshold = too weak to quantify, mostly under pKd 3.1 to 4. The note with it: plain residues with an end cap or a label only (N-terminal biotin on a linker: ado-ado).
On to B1, for which the pKd was determined as 4.09.
B2: the pKd entry was “below the threshold”.

A further assay deals with GRIP2_3, Q9C0E4. Nature of the assay: holdup assay. More on the design: key: below the threshold = too weak to quantify, mostly under pKd 3.1 to 4. As to conditions: plain residues with an end cap or a label only (N-terminal biotin on a linker: ado-ado).
GRIP2_3, Q9C0E4, sequence (Q9C0E4 238-339): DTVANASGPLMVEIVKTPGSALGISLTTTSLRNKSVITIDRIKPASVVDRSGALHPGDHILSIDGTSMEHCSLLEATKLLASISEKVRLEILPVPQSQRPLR
Take B1: the pKd result is recorded as “below the threshold”.
Take B2: the pKd entry is on record as “below the threshold”.

The target of a further assay is NHERF4_2, Q86UT5. The experiment in a line: holdup assay. The arrangement: key: below the threshold = too weak to quantify, mostly under pKd 3.1 to 4. As to conditions: plain residues with an end cap or a label only (N-terminal biotin on a linker: ado-ado).
NHERF4_2, Q86UT5, sequence (Q86UT5 220-308): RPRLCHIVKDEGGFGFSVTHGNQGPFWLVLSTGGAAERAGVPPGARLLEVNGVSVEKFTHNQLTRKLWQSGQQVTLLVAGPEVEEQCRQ
Consider B1, for which the pKd result is “below the threshold”.
For the molecule B2, the pKd entry is listed as “below the threshold”.

Another assay concerns the target T10, SIPA1L2, Q9P2F8.
T10 sequence (Q9P2F8 945-1036, limits assumed, looked up): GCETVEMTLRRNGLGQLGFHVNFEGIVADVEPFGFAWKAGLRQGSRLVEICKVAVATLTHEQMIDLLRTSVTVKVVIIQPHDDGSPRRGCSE
The experiment in a line: holdup assay. The arrangement: key: below the threshold = too weak to quantify, mostly under pKd 3.1 to 4. The note with it: plain residues with an end cap or a label only (N-terminal biotin on a linker: ado-ado).
For the molecule B1, the negative-log Kd (pKd) entry was “below the threshold”.
For the molecule B2, the pKd result is “below the threshold”.

For a further assay, the target named is T11, DFNB31_3, Q9P202.
T11 sequence (Q9P202 811-907, limits assumed, looked up): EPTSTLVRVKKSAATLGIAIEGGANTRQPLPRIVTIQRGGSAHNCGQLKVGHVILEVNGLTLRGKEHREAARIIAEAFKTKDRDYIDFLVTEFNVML
The experiment in a line: holdup assay. More on the design: key: below the threshold = too weak to quantify, mostly under pKd 3.1 to 4. The note with it: plain residues with an end cap or a label only (N-terminal biotin on a linker: ado-ado).
For the molecule B1, the pKd was 3.99.
Same read-out and setting: the same measure for B2: “below the threshold”.

A further assay has as its target T12, TJP3_3, O95049.
T12 sequence (O95049 375-456, limits assumed, looked up): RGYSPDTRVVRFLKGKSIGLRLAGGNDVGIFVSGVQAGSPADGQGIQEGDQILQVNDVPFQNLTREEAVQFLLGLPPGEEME
Nature of the assay: holdup assay. More on the design: key: below the threshold = too weak to quantify, mostly under pKd 3.1 to 4. As to conditions: plain residues with an end cap or a label only (N-terminal biotin on a linker: ado-ado).
Take B1: the negative logarithm of the Kd (pKd) turned out to be 4.98.
The same measure, in the same setting: then B2, with “below the threshold”.

A further assay has as its target T13, SNTG1, Q9NSN8.
T13 sequence (Q9NSN8 52-150, limits assumed, looked up): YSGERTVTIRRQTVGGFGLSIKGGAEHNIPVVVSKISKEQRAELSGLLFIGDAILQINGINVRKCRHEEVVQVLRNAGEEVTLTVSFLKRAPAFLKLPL
Nature of the assay: holdup assay. The note with it: plain residues with an end cap or a label only (N-terminal biotin on a linker: ado-ado). More on the design: key: below the threshold = too weak to quantify, mostly under pKd 3.1 to 4.
B1 returned a pKd of 5.6.
In the case of B2, the pKd entry is reported as “below the threshold”.

For a further assay, the target named is MAGI1_2, Q96QZ7. The experiment in a line: holdup assay. The arrangement: key: below the threshold = too weak to quantify, mostly under pKd 3.1 to 4. As to conditions: plain residues with an end cap or a label only (N-terminal biotin on a linker: ado-ado).
MAGI1_2, Q96QZ7, sequence (Q96QZ7 456-580): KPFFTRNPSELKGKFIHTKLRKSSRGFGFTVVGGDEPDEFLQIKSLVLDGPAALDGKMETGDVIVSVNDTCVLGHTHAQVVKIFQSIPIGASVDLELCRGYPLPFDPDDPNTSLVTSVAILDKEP
With B1, the negative logarithm of the Kd (pKd) entry was “below the threshold”.
As for B2, the pKd entry is given as “below the threshold”.
